Measurements from patent US5908756.

Target: neuronal nitric oxide synthase (nNOS) expressed in transfected HEK 293 cells (rat)

Sequence of thrombin-cleaved PIN-1 (P61273 whole entry): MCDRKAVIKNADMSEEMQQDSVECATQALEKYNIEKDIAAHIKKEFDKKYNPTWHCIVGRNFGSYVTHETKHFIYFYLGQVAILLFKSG

| 50% inhibition of NOS activity [µM] | Substance |
| --- | --- |
| 1 | glutathione-S-transferase (GST)-PIN-1 fusion protein |
| 5000 | thrombin-cleaved PIN-1 |
